# According to US20220411514A1 (published 2022):
# Molecular target: hGal-3 (UniProt P17931 2-250)
# Assay: SPR
# hGal-3, sequence (P17931 2-250): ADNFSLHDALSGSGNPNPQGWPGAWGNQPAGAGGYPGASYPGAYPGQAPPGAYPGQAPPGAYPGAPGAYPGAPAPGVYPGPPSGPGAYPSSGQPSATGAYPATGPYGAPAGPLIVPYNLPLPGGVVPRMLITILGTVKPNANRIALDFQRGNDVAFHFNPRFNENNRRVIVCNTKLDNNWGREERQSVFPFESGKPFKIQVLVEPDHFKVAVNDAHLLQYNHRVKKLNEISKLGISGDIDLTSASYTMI
row,Binder,Kd
1,"13G4.2F8 (antibody, V domains shown) VH: QVQLQQPGAELVKPGASVKLSCKASGYTFTSYWMHWVKQRPGQGLEWIGMIHPNSGSTDYNEKFKNKATLNVDKSSSTAYIQLSSLTSEDSAVYYCTRWGIYYYARDYWGQGTTLTVSS VL: DIVMTQSQKFMSTSVGERVSITCKASQNVGTNVAWYQQKAGQSLELLIYGASNRHTGVPDRFTGSGSGTDFTLTITNVQSEDMTNYFCEQYSNFPLTFGAGTKLELKR",2.53 nM
2,"15F10.2D6 (antibody, V domains shown) VH: EVQLVESGGGLVKPGGSLKLSCAASGFAFSSYAMSWVRQTPEKRLEWVATISDGGVYTYYTDHVKGRFTISRDNAEDNLYLQMSHLKSEDTAMYYCVRDGGYWGQGTTLTVSS VL: DVLMTQTPLSLPVSLGDQASISCRSSQSIVHNNGNTYLEWYLQKPGQSPKLLIYKVSNRFSGVPDRFSGSGSGTDFTLKISRVEAEDLGVYYCFQGSHVPLTFGGGTKLELKR",2.06 nM
3,"7D8.2D8 (antibody, V domains shown) VH: EVQLVESGGGLVKPGGSLKLSCAASGFTFSSYAMSWVRQTPEKRLEWVATISDGGIYTYYPDNVKGRFTISRDNAKNNLFLQMSHLKSEDTAMYYCVRDGGYWGQGTTLTVSS VL: DVLMTQTPLSLPVSLGDQASISCRSSQSIVHSNGNTYLEWYLQKPGQSPKLLIYKVSNRFSGVPDRFSGSGSGTDFTLKISRVEAEDLGVYYCFQGSHVPLTFGAGTKLELKR",2.49 nM
4,19D9.2E5 (antibody) chain 1: QIQLVQSGPELKKPGETVKISCKASGYTFTTYGMGWVKQAPGKGLKWMGWINTYSGVPTYADDFKGRFAFSLETSTSTAYLQINNLKNEDMATYFCATPYEYDGAYWGQGTLVTVSA chain 2: not shown,< 1 nM
5,"IMT-001 (antibody, V domains shown) VH: QVQLVQSGSELKKPGASVKVSCKASGYTFTNYGMNWVRQAPGQGLKWMGWINTNTGEPTYVEEFTGRFVFSLETSVSTAYLQISSLKAEDTAVYFCAPYDNFFAYWGQGTTVTVSS VL: DIVLTQSPLSLPVTPGEPASISCRSSKSLLYKDGKTYLNWFLQKPGQSPQLLIYLMSTHASGVPDRFSGSGSGTDFTLKISRVEAEDVGVYYCQQLVDYPLTFGGGTKLEIKR",6.09 nM
6,"IMT-006 (antibody, V domains shown) VH: QVQLVQSGAEVKKPGASVKVSCKASGYSFTNYYMHWVRQAPGQRLEWMGWIYPGSGNTNYNEKFQGRVTITADTSASTAYMELSSLRSEDTAVYYCSTAPGGFDVWGQGTTVTVSS VL: DIVMTQTPLSLSVTPGQPASISCKSSKSLLHSDGITYLYWYLQKPGQSPQLLIYRMSNLASGVPDRFSGSGSGTDFTLKISRVEAEDVGVYYCAQMLEFPLTFGQGTKLEIKR",16.5 nM
7,"9H2.2H10 (antibody, V domains shown) VH: QVQLQQPGAELVGPGSSVKLSCKASGYTFTNYWIHWVKQRPLQGLEWIGNIDPSDSETHYNQKFKDKATLTVDKSSSTAYMQLSSLTSEDSAVYYCARHGYYDYWGQGTTLTVSS VL: DIVMTQSHKFMSTSVGDRVSITCKASQDVSTAVAWYQQKPGQSPKLLIYWASTRHTGVPDRFTGSGSGTDYTLTISSVQAEDLALYYCQQHYTTPLTFGAGTKLELKR",18.4 nM
8,"3B11.2G2 (antibody, V domains shown) VH: QIQLVQSGPELKKPGETVKISCKTSGYKFKTYVMSWVKQAPGKALKWMGWINTYSGVPTYADDFKGRFAFSLETSASTAYLEIINLKNEDTATYFCARDGNYGDPMDYWGQGTSVTVSS VL: not shown",< 1 nM
9,"6H6.2D6 (antibody, V domains shown) VH: QIQLVQSGPELKKPGETVKISCKASGYTFTTYGMSWVKQAPGKGLKWMAWINTYSGVPTYADDFKGRFAFSLETSASTAYLQINNLTNEDTATYFCARGPYAMDYWGQGTSVTVSS VL: DIQMTQTTSSLSASLGDRVTISCSASQGISNYLNWYQQKPDGTVKLLIYYTSSLHSGVPSRFSGSGSGTDYSLTISNLEPEDIATYYCQQYSELPYTFGSGTKLEIKR",4.86 nM
10,"19B5.2E6 (antibody, V domains shown) VH: QIQLVQSGPELKKPGETVKISCKASGYTFTTYAMSWVKQAPGKGLKWMGWINTYSGVPTYADDLKGRFAFSLETSASTAYLQINNLKNEDTATYFCARGPYAMDYWGQGTSVTVSS VL: DIQMTQTTSSLSASLGDRVTISCSASQGINNYLNWYQQKPDGTVKLLIYYASSLHSGVPSRFSGSGSGTDYSLTISNLEPEDIATYYCQQYSQVPYTFGSGTKLEIKR",< 1 nM
11,"23H9.2E4 (antibody, V domains shown) VH: QIQLVQSGPELKKPGETVKISCKASGYTFTTYAMSWVKQAPGKGLKWMGWINTYSGVPTYADDLKGRFAFSLETSASTAYLQINNLKNEDTATYFCARGPYAMDYWGQGTSVTVSS VL: DIQMTQTTSSLSASLGDRVTISCSASQGINNYLNWYQQKPDGTVKLLIYYASSLHSGVPSRFSGSGSGTDYSLTISNLEPEDIATYYCQQYSQVPYTFGSGTKLEIK",4.26 nM
12,"15G7.2A7 (antibody, V domains shown) VH: EVQLQQSGPELVKPGASVKISCKASGYTFTDYYMNWVKQSHGKSLEWIGDINPNNGGTNYNQKFKGKATLTVDKSSSTAYMELRSLTSEDSAVYYCTSGYGFPYWGQGTLVTVSA VL: DIQMNQSPSSLSASLGDTISITCRASQNINIWLSWYQQKPGNIPQLLIYKASNLHTGVPSRFSGSGSGTDFTLTISSLQPEDIATYYCLQGQSYPLTFGAGTKLVMKR",11.3 nM
13,"4A11.2B5 (antibody, V domains shown) VH: QVQLQQSGPELVKPGASVKISCKASGYSFTNYYIHWVKQRPGQGLEWIGWIYPGSGNTNYNEKFKGKATLTADTSSSTTNMQLSSLTSEDSAVYYCSTAPGGFDVWGSGTTVTVSS VL: DIVMTQAAFSNPVTLGTSASISCRSSKSLLHSDGITYLYWYLQRPGQSPQLLIYRMSNLASGVPDRFSGSGSGTDFTLRISRVEAEDVGVYYCAQMLEFPLTFGAGTKLELKR",5.22 nM
14,"4G2.2G6 (antibody, V domains shown) VH: QIQLVQSGPDLKKPGETVKISCKASGYTFTTYVMSWVKQAPGKDLKWMGWINTHSGVPTYADDFKGRFDFSLETSANTAFLQINNLKNEDTATYFCTRDGNDGDAMDNWGQGTSVTVSS VL: not shown",< 1 nM
